From patent US20180086841A1 (Merck Sharp & Dohme, published 2018)

Key:
Q91A = molecular target: T1, Q91A; assay: flow cytometry on CHO-K1 transfectants, right sub-column
T1 construct: also called hCD27 Q91A
T1 receptor chain: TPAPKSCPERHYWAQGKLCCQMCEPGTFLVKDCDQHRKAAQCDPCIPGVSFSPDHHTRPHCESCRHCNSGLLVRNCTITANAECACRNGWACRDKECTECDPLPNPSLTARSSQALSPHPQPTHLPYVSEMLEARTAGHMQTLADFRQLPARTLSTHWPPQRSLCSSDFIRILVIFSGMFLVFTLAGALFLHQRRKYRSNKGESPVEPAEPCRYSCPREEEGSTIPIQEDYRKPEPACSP
Method: (§1) The hCD27 variants that were tested are listed. Amino acids correspond to the UniProt P26842-1 sequence. Amino acids 1-20 constitute the signal peptide. Binding is expressed as the geometric mean of the FITC signal, relative to antibody binding to hCD27, which was set at 100%.
(§2) The ability of several anti-hCD27 antibodies to bind to a series of hCD27 alanine mutants was determined using CHO-K1 cells, transiently transfected pCI-neo empty vector, pCI-neo.hCD27 and several pCI-neo.CD27Ala mutant constructs.
(§3) Detached cells were transferred to 96 wells round-bottomed well plates at approximately 1.2×10⁵ cells/well. After spinning down the cells, discarding the supernatants and re-suspending the cells in the residual volume, the primary antibodies were added and incubated for 30 minutes at 4° C. Cells were washed three times with DPBS/BSA 1%, followed by centrifugation, discarding of the supernatants and re-suspension in the residual volume. […] After washing once, antibody binding was detected using the HTS plate reader (FACS Canto II) and FlowJo software for data analysis. Debris, dead cells and doublets were excluded from the analysis. Binding was expressed as the geometric mean of the FITC signal, relative to antibody binding to hCD27, which was set at 100%.

Q15A = molecular target: T2, Q15A; assay: as above
T2 construct: also called hCD27 Q15A
T2 receptor chain: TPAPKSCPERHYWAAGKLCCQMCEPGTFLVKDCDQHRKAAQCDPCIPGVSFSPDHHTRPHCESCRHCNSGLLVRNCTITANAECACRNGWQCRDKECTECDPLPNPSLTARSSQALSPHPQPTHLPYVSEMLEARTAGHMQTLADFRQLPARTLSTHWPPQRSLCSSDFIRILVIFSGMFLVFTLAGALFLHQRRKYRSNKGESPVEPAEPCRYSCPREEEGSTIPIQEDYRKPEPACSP
Method: as §1, §2, §3

K17A = molecular target: T3, K17A; assay: as above
T3 construct: also called hCD27 K17A
T3 receptor chain: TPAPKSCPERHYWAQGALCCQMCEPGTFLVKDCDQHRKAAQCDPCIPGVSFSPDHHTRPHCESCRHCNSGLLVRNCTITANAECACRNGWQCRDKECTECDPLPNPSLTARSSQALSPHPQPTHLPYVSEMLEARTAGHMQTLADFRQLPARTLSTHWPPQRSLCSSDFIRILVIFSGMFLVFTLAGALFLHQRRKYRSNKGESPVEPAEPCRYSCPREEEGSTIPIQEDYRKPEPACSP
Method: as §1, §2, §3

I46A = molecular target: T4, I46A; assay: as above
T4 construct: also called hCD27 I46A
T4 receptor chain: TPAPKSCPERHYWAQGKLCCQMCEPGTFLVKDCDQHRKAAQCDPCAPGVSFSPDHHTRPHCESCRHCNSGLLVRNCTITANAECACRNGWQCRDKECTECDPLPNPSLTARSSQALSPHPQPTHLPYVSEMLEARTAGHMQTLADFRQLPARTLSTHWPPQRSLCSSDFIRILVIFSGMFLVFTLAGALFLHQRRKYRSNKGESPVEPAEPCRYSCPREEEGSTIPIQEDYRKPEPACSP
Method: as §1, §2, §3

V30A = molecular target: T5, V30A; assay: as above
T5 construct: also called hCD27 V30A
T5 receptor chain: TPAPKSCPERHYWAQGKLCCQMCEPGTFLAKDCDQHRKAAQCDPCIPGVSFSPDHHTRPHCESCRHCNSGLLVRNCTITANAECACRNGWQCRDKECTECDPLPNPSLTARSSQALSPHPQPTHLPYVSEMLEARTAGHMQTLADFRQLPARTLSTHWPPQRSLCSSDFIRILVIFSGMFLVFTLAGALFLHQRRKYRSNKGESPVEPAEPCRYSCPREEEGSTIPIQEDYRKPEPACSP
Method: as §1, §2, §3

R10A = molecular target: T6, R10A; assay: as above
T6 construct: also called hCD27 R10A
T6 receptor chain: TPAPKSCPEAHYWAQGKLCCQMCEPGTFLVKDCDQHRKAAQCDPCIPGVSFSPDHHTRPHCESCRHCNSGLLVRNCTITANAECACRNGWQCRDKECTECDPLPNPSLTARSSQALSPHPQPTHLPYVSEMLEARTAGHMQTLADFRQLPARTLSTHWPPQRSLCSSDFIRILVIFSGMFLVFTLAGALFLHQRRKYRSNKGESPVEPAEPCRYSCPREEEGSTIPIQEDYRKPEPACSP
Method: as §1, §2, §3

Q41A = molecular target: T7, Q41A; assay: as above
T7 construct: also called hCD27 Q41A
T7 receptor chain: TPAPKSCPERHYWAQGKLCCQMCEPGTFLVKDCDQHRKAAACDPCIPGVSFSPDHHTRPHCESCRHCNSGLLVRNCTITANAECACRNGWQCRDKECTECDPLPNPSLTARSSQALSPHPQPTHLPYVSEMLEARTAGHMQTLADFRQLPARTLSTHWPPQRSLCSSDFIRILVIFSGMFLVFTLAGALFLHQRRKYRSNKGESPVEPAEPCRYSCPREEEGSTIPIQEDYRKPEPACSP
Method: as §1, §2, §3

P44A = molecular target: T8, P44A; assay: as above
T8 construct: also called hCD27 P44A
T8 receptor chain: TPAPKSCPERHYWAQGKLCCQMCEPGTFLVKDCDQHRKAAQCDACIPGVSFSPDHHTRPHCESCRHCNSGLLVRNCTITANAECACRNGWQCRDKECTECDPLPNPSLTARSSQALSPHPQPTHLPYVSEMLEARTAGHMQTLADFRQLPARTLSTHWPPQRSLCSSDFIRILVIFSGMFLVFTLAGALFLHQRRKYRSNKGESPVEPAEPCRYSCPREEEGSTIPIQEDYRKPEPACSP
Method: as §1, §2, §3

D43A = molecular target: T9, D43A; assay: as above
T9 construct: also called hCD27 D43A
T9 receptor chain: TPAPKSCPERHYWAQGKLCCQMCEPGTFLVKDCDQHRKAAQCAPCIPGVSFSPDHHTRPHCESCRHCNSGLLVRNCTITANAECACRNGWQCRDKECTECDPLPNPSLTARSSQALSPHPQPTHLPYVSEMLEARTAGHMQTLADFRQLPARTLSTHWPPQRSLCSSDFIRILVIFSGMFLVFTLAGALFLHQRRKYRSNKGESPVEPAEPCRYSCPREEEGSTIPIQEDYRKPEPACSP
Method: as §1, §2, §3

F28A = molecular target: T10, F28A; assay: as above
T10 construct: also called hCD27 F28A
T10 receptor chain: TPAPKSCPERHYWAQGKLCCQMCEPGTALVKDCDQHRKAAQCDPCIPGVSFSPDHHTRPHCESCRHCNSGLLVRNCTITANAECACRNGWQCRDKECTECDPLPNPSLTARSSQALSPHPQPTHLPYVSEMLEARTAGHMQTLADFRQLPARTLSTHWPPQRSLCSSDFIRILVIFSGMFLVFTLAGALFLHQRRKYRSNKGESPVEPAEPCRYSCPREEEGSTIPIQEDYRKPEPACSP
Method: as §1, §2, §3

human CD27 = molecular target: T11, human CD27 (human, UniProt P26842 21-260); assay: flow cytometry MFI, CD4+ T cells of human PBMC, N=2 donors
T11 construct: also called hCD27; HsCD27
Method: Labeled cells were washed by re-suspending them in 150 ul of staining buffer (SB) followed by centrifugation at 300 g for 5 minutes. Cells were then resuspended in 100 ul of SB containing primary anti-CD27 antibodies at various concentrations, incubated in the dark at 4° C. for 30 minutes, followed by washing and centrifugation steps as previously described. […] Cells were incubated for 30 minutes at 4° C. in the dark, followed by washing and centrifugation steps. Next, cells were stained with a cocktail of phenotypic antibodies for surface markers (CD3, CD4, CD8, CD11b) and incubated for 30 minutes at 4° C. in the dark, followed by washing and centrifugation steps. […] Samples were acquired in a LSR-Fortessa flow cytometer (BD Biosciences) using the high throughput sampler and data analyzed by FlowJo software (Tree Star Inc).

- binding, WT hCD27 = 100 (GM FITC) (Q91A): 136%
- binding, WT hCD27 = 100 (GM FITC) (Q15A): 136%
- binding, WT hCD27 = 100 (GM FITC) (K17A): 126%
- binding, WT hCD27 = 100 (GM FITC) (I46A): 75%
- binding, WT hCD27 = 100 (GM FITC) (V30A): 94%
- binding, WT hCD27 = 100 (GM FITC) (R10A): 108%
- binding, WT hCD27 = 100 (GM FITC) (Q41A): 80.5%
- binding, WT hCD27 = 100 (GM FITC) (P44A): 91%
- binding, WT hCD27 = 100 (GM FITC) (D43A): 96.2%
- binding, WT hCD27 = 100 (GM FITC) (F28A): 57.1%
- EC50 (human CD27): 0.0645 nM
B1: hCD27.131A (mouse parental 131A) (antibody, mouse IgG1, V domains shown)
VH: QIQLVQSGPELKKPGETVKISCKASGYTFTNYGMNWVKQAPGKGLKWMGWINTNTGEPTYAEEFKGRFAFSLETSATTAYLQINNLKNEDTATYFCAREGDAMDYWGQGTSVTVSS
VL: QIVLTQSPAIMSASPGEKVTMTCSASSSVSYMHWYQQKSGTSPKRWIYDTSKLASGVPARFSGSGSGTSYSLTISSMEAEDAATYYCQQWNSYPFTFGSGTKLEIK
notes: Mouse IgG1 antibody; also called mouse hCD27.131A
